Tests used:
Assay in all cases: BLI (Octet), Fab, monovalent
[1] = target: SARS-CoV-2 Beta RBD (SARS-CoV-2)
[2] = target: SARS-CoV-2 Omicron BA.1 spike S1 subunit (SARS-CoV-2)
[3] = target: SARS-CoV-2 Omicron BA.2 RBD (SARS-CoV-2)

B1: VYD222 Fab (Fab, V domains shown)
VH: EVQLVESGGGLVKPGGSLRLSCAASGFTFGSYEMNWVRQAPGKGLEWVSSISEDGYSTYYPDSLKGRFTISRDSAKNSLYLQMNSLRADDTAVYYCARDFGGDTAWAGTGFTYWGQGTLVTVSS
VL: QSVLTQPPSVSGAPGQRITISCTGSSSNIGAGYDVHWYQQLPGTAPKLLIYGSSSRNYGVPDRFSGSKSGTSASLAITGLQAEDEADYYCQSYDSDLGVLYTFGTGTKVTVL
With B1 the Kd [1] was 1.74 nM, the Kd [2] was 18.1 nM and the Kd [3] was 13.5 nM.

From US20260078171A1
